What all share (assay): enzyme inhibition kinetics
The target in test [1] is full-length factor XIa with a Gln substitution for Arg-37 (human).
Test [2] addresses factor XIa catalytic domain K170A (human) (UniProt P03951).
In test [3] the target is factor XIa catalytic domain R171A (human) (UniProt P03951).
Test [4] addresses factor XIa catalytic domain K175A (human).
Test [5] deals with factor XIa catalytic domain R173A (human) (UniProt P03951).
Test [6] deals with factor XIa catalytic domain K179A (human).
The target of test [7] is factor XIa catalytic domain K170A (human) (UniProt P03951). The source holds these as a separate data set.
For test [8], the target named is factor XIa catalytic domain R171A (human) (UniProt P03951). The source holds these as a separate data set.
The target of test [9] is wild type recombinant factor XIa, full length (human).
Test [10] has as its target factor XIa catalytic domain K175A (human). The source holds these as a separate data set.
Test [11] has as its target factor XIa catalytic domain K179A (human). This is another data set of the same source.
For test [12], the target named is full-length factor XIa with a Gln substitution for Arg-37 (human). This is another data set of the same source.
Test [13] concerns the target factor XIa catalytic domain K170A (human) (UniProt P03951). The source holds these as a separate data set.
The target of test [14] is factor XIa catalytic domain R171A (human) (UniProt P03951). The source holds these as a separate data set.
The target of test [15] is full-length factor XIa autolysis loop variant fXIa-144-149A (human).
Test [16] has as its target factor XIa catalytic domain K175A (human). This is another data set of the same source.
The target of test [17] is factor XIa catalytic domain R173A (human) (UniProt P03951). This is another data set of the same source.
For test [18], the target named is factor XIa catalytic domain K179A (human). This is another data set of the same source.

Read-outs that look alike come from different tables or passages of the source.

As to “antithrombin (from UniProt P01008 33-464) (natural protein)”, the k2 (second-order inhibition rate constant) in [1] came out at 2620 M⁻¹ s⁻¹; in [2], 610 M⁻¹ s⁻¹; in test [3] it was 1200 M⁻¹ s⁻¹; in test [4], 550 M⁻¹ s⁻¹; in test [5], 560 M⁻¹ s⁻¹; in test [6], 680 M⁻¹ s⁻¹. Further, the k2 (second-order inhibition rate constant) in test [7] worked out at 12000 M⁻¹ s⁻¹; in test [8], 18000 M⁻¹ s⁻¹; in test [9], 223000 M⁻¹ s⁻¹; in test [10] it was 17000 M⁻¹ s⁻¹; in [11], 50000 M⁻¹ s⁻¹; in test [12] it was 1550 M⁻¹ s⁻¹. For the same substance, the k2 (second-order inhibition rate constant) in test [13] was determined as 230 M⁻¹ s⁻¹; in test [14] it was 490 M⁻¹ s⁻¹; in test [16], 180 M⁻¹ s⁻¹; in test [17], 210 M⁻¹ s⁻¹; in test [18], 250 M⁻¹ s⁻¹. In test [15], the k2 (second-order inhibition rate constant), maximal worked out at 200000 M⁻¹ s⁻¹.

The values are drawn from article PMC2654577.
